T1: B-P564 peptide (biotin-labeled HIF-1α 556-575 peptide)
T1 chain: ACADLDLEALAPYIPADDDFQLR

T2: F-N803 peptide (FITC-labeled HIF-1α 788-822 peptide)
T2 chain: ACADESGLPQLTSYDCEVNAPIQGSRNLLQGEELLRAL

B1: GST-PHD2 (human prolyl hydroxylase 2, amino acids 184-426) (protein)
chain: QTKPLPALKLALEYIVPCMNKHGICVVDDFLGKETGQQIGDEVRALHDTGKFTDGQLVSQKSDSSKDIRGDKITWIEGKEPGCETIGLLMSSMDDLIRHCNGKLGSYKINGRTKAMVACYPGNGTGYVRHVDNPNGDGRCVTCIYYLNKDWDAKVSGGILRIFPEGKAQFADIEPKFDRLLFFWSDRRNPHEVQPAYATRYAITVWYFDADERARAKVKYLTGEKGVRVELNKPSDSVGKDVF
B2: His-FIH1 (human factor inhibiting HIF1, amino acids 1-349) (protein)
chain: MAATAAEAVASGSGEPREEAGALGPAWDESQLRSYSFPTRPIPRLSQSDPRAEELIENEEPVVLTDTNLVYPALKWDLEYLQENIGNGDFSVYSASTHKFLYYDEKKMANFQNFKPRSNREEMKFHEFVEKLQDIQQRGGEERLYLQQTLNDTVGRKIVMDFLGFNWNWINKQQGKRGWGQLTSNLLLIGMEGNVTPAHYDEQQNFFAQIKGYKRCILFPPDQFECLYPYPVHHPCDRQSQVDFDNPDYERFPNFQNVVGYETVVGPGDVLYIPMYWWHHIESLLNGGITITVNFWYKGAPTPKRIEYPLKAHQKVAIMRNIEKMLGEALGNPQEVGPLLNTMIKGRYN

Columns and labels:
[1] = target: T1, B-P564 peptide (biotin-labeled HIF-1α …)
[2] = target: T2, F-N803 peptide (FITC-labeled HIF-1α …)

Protein | proline hydroxylation of the peptide, MALDI mass spectrometry [1] | asparagine hydroxylation of the peptide, MALDI mass spectrometry [2]
B1 | The proline residue was hydroxylated in the baicalein-free reactant | 
B2 |  | The asparagine residue was hydroxylated in the baicalein-free reactant

Source: patent US20100004325
